Data taken from PMC10746276.

Target: CsrA-His6 (Escherichia coli) (UniProt P69913)
Test: EMSA
Details: EMSA: 0.1 nM RNA, 10 mM MgCl2, 100 mM KCl, 32.5 ng yeast RNA, 20 mM DTT, 7.5% glycerol, 4 U SUPERasin, 30 min 37 C (pH not given), footprint: 2 nM RNA

Chain of CsrA-His6 (Escherichia coli) (P69913 whole entry): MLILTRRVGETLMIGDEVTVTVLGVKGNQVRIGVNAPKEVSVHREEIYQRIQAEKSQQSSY

Row | Substance | Kd [nM] | Kd (second shifted species at 30 nM CsrA and higher) [nM]
1 | yqjD leader WT, full-length (yqjC-yqjD intercistronic RNA) | 8 | 9
2 | yqjD leader full-length, BS4 mutant (CUGGA to GUGGA) | 25 | 
